Measurements taken from PMC7076939.
pKd: −log10 of the molar value.

Tests used:
MeCP2 (human) = experiment: fluorescence anisotropy; settings: 24 nM DNA, text gives error 4.4, 5-methylcytosine at one CpG, Anisotropy: 20 mM HEPES, 50 mM NaCl, 3 mM MgCl2, 3 mM EDTA, pH 7.5, 24 nM DNA, temperature not given, AFM: 20 mM HEPES, 10 mM Mg(OAc)2, 100 mM NaCl
[1] = tested on: MBD2FLsc (single-chain MBD2 with scMBD2-GATAD2A), unlabeled (human); experiment: fluorescence anisotropy; settings: 24 nM DNA, text rounds to 12±4, 5-methylcytosine at one CpG, Anisotropy: 20 mM HEPES, 50 mM NaCl, 3 mM MgCl2, 3 mM EDTA, pH 7.5, 24 nM DNA, temperature not given, AFM: 20 mM HEPES, 10 mM Mg(OAc)2, 100 mM NaCl
[2] = tested on: ATTO-MBD2 (MBD2FLsc labeled with ATTO 565) (human); experiment: fluorescence anisotropy; settings: 24 nM DNA, text rounds to 25±5, 5-methylcytosine at one CpG, Anisotropy: 20 mM HEPES, 50 mM NaCl, 3 mM MgCl2, 3 mM EDTA, pH 7.5, 24 nM DNA, temperature not given, AFM: 20 mM HEPES, 10 mM Mg(OAc)2, 100 mM NaCl
[3] = tested on: ATTO-MBD2 (MBD2FLsc labeled with ATTO 565) (human); experiment: nanochannel single-molecule fluorescence; settings: Anisotropy: 20 mM HEPES, 50 mM NaCl, 3 mM MgCl2, 3 mM EDTA, pH 7.5, 24 nM DNA, temperature not given, AFM: 20 mM HEPES, 10 mM Mg(OAc)2, 100 mM NaCl

FAM-labeled dsDNA with one methylated CpG
pKd (MeCP2 (human)): 8.12
pKd [1]: 7.92
pKd [2]: 7.61

methylated lambda DNA
binding signal (fold bound vs unmethylated) ([3]; CpG 5-methylcytosine): 10

unmethylated lambda DNA
binding signal (fraction of methylated) [3]: 0.1
